According to US20210032312A1 (Janssen / Centocor, published 2021):
Numbering of substitutions follows the chain as printed. Values belong to the binder of their own block, whether it stands above or below them.

Legend:
[1] = biological target: T1, human CD8 alpha (CD8A) on primary human CD8+ T cells (human, UniProt P01732 22-235); assay: flow cytometry, human CD8+ T cells, 2 uM FN3
T1 construct: whole, on cells; also called hCD8A

[2] = biological target: T1, human CD8 alpha (CD8A) on primary human …; assay: flow cytometry, human CD8+ T cells, 0.2 uM FN3
[3] = biological target: T2, cynomolgus monkey CD8A on primary cynomolgus monkey CD8+ T cells (cynomolgus monkey, UniProt P01732 23-235 (human entry)); assay: flow cytometry, cyno CD8+ T cells, 2 uM FN3
T2 construct: also called Cyno CD8alpha

In house human CD8A-Fc = biological target: T3, In house human CD8A-Fc (human, UniProt P01732 22-182, limits assumed); assay: SPR (ProteOn), captured hCD8A-Fc
T3 construct: Captured on goat anti-human Fc on a ProteOn GLC chip; also called hCD8A-Fc; recombinant human CD8 alpha; not shown: linker with flag (and polyhistidine) tag and Fc of human IgG1

[4] = biological target: T2, cynomolgus monkey CD8A on primary …; assay: flow cytometry, cyno CD8+ T cells, 0.2 uM FN3

T1 sequence (P01732 22-235): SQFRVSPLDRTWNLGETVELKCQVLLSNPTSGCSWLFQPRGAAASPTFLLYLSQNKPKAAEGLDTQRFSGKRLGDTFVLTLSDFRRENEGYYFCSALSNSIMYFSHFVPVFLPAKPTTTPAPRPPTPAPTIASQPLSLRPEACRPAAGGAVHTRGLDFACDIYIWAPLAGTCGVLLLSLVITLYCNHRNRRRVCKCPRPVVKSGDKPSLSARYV
T2 sequence (P01732 other isoform, or with tags, fused parts or gaps limits assumed): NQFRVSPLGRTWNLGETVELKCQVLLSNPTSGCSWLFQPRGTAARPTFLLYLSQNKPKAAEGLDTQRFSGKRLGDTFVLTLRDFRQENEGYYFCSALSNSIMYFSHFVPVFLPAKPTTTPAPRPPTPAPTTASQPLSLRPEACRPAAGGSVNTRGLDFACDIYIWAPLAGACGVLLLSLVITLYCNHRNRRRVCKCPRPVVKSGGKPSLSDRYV
T3 sequence (P01732 22-182 limits assumed): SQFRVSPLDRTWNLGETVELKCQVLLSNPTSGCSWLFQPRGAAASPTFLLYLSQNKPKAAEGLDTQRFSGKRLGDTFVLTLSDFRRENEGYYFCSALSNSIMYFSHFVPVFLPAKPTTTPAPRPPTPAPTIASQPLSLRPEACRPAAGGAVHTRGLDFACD

Human T-cell Binding 2 uM (MFI) [1]: 25900 MFI | Human T-cell Binding 0.2 uM (MFI) [2]: 6290 MFI | Cyno T-cell Binding 2 uM (MFI) [3]: 64800 MFI | koff (In house human CD8A-Fc): 0.000181 s⁻¹ | Cyno T-cell Binding 0.2 uM (MFI) [4]: 9680 MFI
B1: P282ER9P1360_C1 (designed binder)
chain: LPAPKNLVVSRVTEDSARLSWTTPDAAFDSFGILYYEPVDSGEAITLPVPGSERSYDLTGLKPGTEYWVVITGVKGGAPSTPLGAIFTT
notes: FN3 domain

Human T-cell Binding 2 uM (MFI) [1]: 36800 MFI | Human T-cell Binding 0.2 uM (MFI) [2]: 3210 MFI | Cyno T-cell Binding 2 uM (MFI) [3]: 76600 MFI | koff (In house human CD8A-Fc): 0.000142 s⁻¹ | Cyno T-cell Binding 0.2 uM (MFI) [4]: 1940 MFI
B2: P282ER9P1360_D11 (designed binder)
chain: B1 chain with T23A, W68F, V70I, T72V, A78Y, T81I, I86A
notes: FN3 domain

Human T-cell Binding 2 uM (MFI) [1]: 23400 MFI | Human T-cell Binding 0.2 uM (MFI) [2]: 5340 MFI | Cyno T-cell Binding 2 uM (MFI) [3]: 64700 MFI | koff (In house human CD8A-Fc): 0.000133 s⁻¹ | Cyno T-cell Binding 0.2 uM (MFI) [4]: 8730 MFI
B3: P282ER9P1360_A9 (designed binder)
chain: B1 chain with T23A, V49I
notes: FN3 domain

Human T-cell Binding 2 uM (MFI) [1]: 26900 MFI | Human T-cell Binding 0.2 uM (MFI) [2]: 5030 MFI | Cyno T-cell Binding 2 uM (MFI) [3]: 60800 MFI | koff (In house human CD8A-Fc): 0.000191 s⁻¹ | Cyno T-cell Binding 0.2 uM (MFI) [4]: 6870 MFI
B4: P282ER9P1360_E4 (designed binder)
chain: B1 chain with T23A, P50L
notes: FN3 domain

Human T-cell Binding 2 uM (MFI) [1]: 30600 MFI | Human T-cell Binding 0.2 uM (MFI) [2]: 6010 MFI | Cyno T-cell Binding 2 uM (MFI) [3]: 66800 MFI | koff (In house human CD8A-Fc): 0.000156 s⁻¹ | Cyno T-cell Binding 0.2 uM (MFI) [4]: 10200 MFI
B5: P282ER9P1360_C8 (designed binder)
chain: B1 chain with T23A, A85T
notes: FN3 domain

Human T-cell Binding 2 uM (MFI) [1]: 15200 MFI | Human T-cell Binding 0.2 uM (MFI) [2]: 3480 MFI | Cyno T-cell Binding 2 uM (MFI) [3]: 44600 MFI | koff (In house human CD8A-Fc): 0.000269 s⁻¹ | Cyno T-cell Binding 0.2 uM (MFI) [4]: 4540 MFI
B6: P282ER9P1360_H2 (designed binder)
chain: LPAPKNLVVSRVTEDSARLSWTAPDAAFDSFSIAYVEAELVGEAIQLVVPGSERSYDLTGLKPGTEYWVVILGVKGGNPSNPLGASFTTT
notes: FN3 domain

Human T-cell Binding 2 uM (MFI) [1]: 15400 MFI | Human T-cell Binding 0.2 uM (MFI) [2]: 3700 MFI | Cyno T-cell Binding 2 uM (MFI) [3]: 35700 MFI | koff (In house human CD8A-Fc): 0.000139 s⁻¹ | Cyno T-cell Binding 0.2 uM (MFI) [4]: 8380 MFI
B7: P283AR9P1362_B10 (designed binder)
chain: LPAPKNLVVSRVTEDSARLSWKRRWDSFDSFLIQYQESEKVGEAIVLTVPGSERSYDLTGLKPGTEYTVSIYGVDVEWFNGLPHHSNPLSAIFTT
notes: FN3 domain

Human T-cell Binding 2 uM (MFI) [1]: 919 MFI | Human T-cell Binding 0.2 uM (MFI) [2]: 278 MFI | Cyno T-cell Binding 2 uM (MFI) [3]: 2250 MFI | koff (In house human CD8A-Fc): 0.00449 s⁻¹ | Cyno T-cell Binding 0.2 uM (MFI) [4]: 500 MFI
B8: P282DR9P1359_H5 (designed binder)
chain: LPAPKNLVVSRVTEDSARLSWTAPDAAFDSFNIAYPEALHPGYGEAIVLTVPGSERSYDLTGLKPGTEYFVVIYGVKGGTNSEPLSAIFTT
notes: FN3 domain

Human T-cell Binding 2 uM (MFI) [1]: 27000 MFI | Human T-cell Binding 0.2 uM (MFI) [2]: 7050 MFI | Cyno T-cell Binding 2 uM (MFI) [3]: 62700 MFI | koff (In house human CD8A-Fc): 0.00207 s⁻¹ | Cyno T-cell Binding 0.2 uM (MFI) [4]: 22600 MFI
B9: P282ER9P1360_G10 (designed binder)
chain: LPAPKNLVVSRVTEDSARLSWTAPDAAFDSFAIWYVEQHPFGEAIPLFVPGSERSYDLTGLKPGTEYTVGIRGVKGGNFSTPLIAHFTT
notes: FN3 domain

Human T-cell Binding 2 uM (MFI) [1]: 2510 MFI | Human T-cell Binding 0.2 uM (MFI) [2]: 506 MFI | Cyno T-cell Binding 2 uM (MFI) [3]: 27100 MFI | koff (In house human CD8A-Fc): 0.00104 s⁻¹ | Cyno T-cell Binding 0.2 uM (MFI) [4]: 1890 MFI
B10: P282ER9P1360_H10 (designed binder)
chain: LPAPKNLVVSRVTEDSARLSWTAPDAAFDSFEIYYPEWPFAGEAIGLPVPGSERSYDLTGLKPGTEYFVVIYGVKGGELSEPLTAQFTT
notes: FN3 domain

Human T-cell Binding 2 uM (MFI) [1]: 22400 MFI | Human T-cell Binding 0.2 uM (MFI) [2]: 3860 MFI | Cyno T-cell Binding 2 uM (MFI) [3]: 48700 MFI | koff (In house human CD8A-Fc): 0.000225 s⁻¹ | Cyno T-cell Binding 0.2 uM (MFI) [4]: 4410 MFI
B11: P282ER9P1360_F11 (designed binder)
chain: LPAPKNLVVSRVTEDSARLSWIAPDAAFDSFSIAYVEAELVGEAIQLVVPGSERSYDLTGLKPGTEYWVVILGVKGGNPSNPLGASFTT
notes: FN3 domain

Human T-cell Binding 2 uM (MFI) [1]: 20000 MFI | Human T-cell Binding 0.2 uM (MFI) [2]: 4270 MFI | Cyno T-cell Binding 2 uM (MFI) [3]: 66000 MFI | koff (In house human CD8A-Fc): 0.000242 s⁻¹ | Cyno T-cell Binding 0.2 uM (MFI) [4]: 6440 MFI
B12: P282ER9P1360_H3 (designed binder)
chain: B11 chain with I22T
notes: FN3 domain

Human T-cell Binding 2 uM (MFI) [1]: 15800 MFI | Human T-cell Binding 0.2 uM (MFI) [2]: 1130 MFI | Cyno T-cell Binding 2 uM (MFI) [3]: 63500 MFI | koff (In house human CD8A-Fc): 0.00109 s⁻¹ | Cyno T-cell Binding 0.2 uM (MFI) [4]: 15100 MFI
B13: P282FR9P1361_E12 (designed binder)
chain: LPAPKNLVVSRVTEDSARLSWTAPDAAFDSLGITYWESPYAGEAIVLTVPGSERSYDLTGLKPGTEYGVFILGVKGGYPSAPLSAIFTT
notes: FN3 domain

Human T-cell Binding 2 uM (MFI) [1]: 859 MFI | Human T-cell Binding 0.2 uM (MFI) [2]: 297 MFI | Cyno T-cell Binding 2 uM (MFI) [3]: 3750 MFI | koff (In house human CD8A-Fc): 0.00653 s⁻¹ | Cyno T-cell Binding 0.2 uM (MFI) [4]: 666 MFI
B14: P282FR9P1361_G9 (designed binder)
chain: B13 chain with L31F
notes: FN3 domain
